{
  "source": "patent US20160207996A1",
  "about": "(ARGEN X N V, published 2016)",
  "binders": {"B1": {"name": "8A7 (antibody, human IgG1, V domains shown)", "VH": "EVQVQESGPGLVTPSQTLSLTCTVSGGSIKNNYYYWNWIRQPPGKGLEWMGAIAYSGSTYYSPSLQSRTSISRDTSKNQFTLQLSSVTPEDTAVYYCARVPSVFGLPYGGMNYWGKGTLVTVSS", "VL": "SYELTQSPSVTVALRQTAKITCGGSRIGSKSVQWYQQKPGQVPVLVIYADNRRPSRIPERFSGSNSGNTATLIISGAQAEDEADYYCQVWDSSAAVFGGGTHLTVLG", "notes": "also called mAb 8A7"}},
  "key": {"[1]": {"target": "human Nav1.7 (full length) (human) (UniProt Q15858)", "experiment": "cell-based or functional assay"}, "[2]": {"target": "T1, hNav1.5-loopA3-llFc (human)", "T1 construct": "also called Nav1.5 extracellular loop A3 llamaFc chimera", "T1 chain": "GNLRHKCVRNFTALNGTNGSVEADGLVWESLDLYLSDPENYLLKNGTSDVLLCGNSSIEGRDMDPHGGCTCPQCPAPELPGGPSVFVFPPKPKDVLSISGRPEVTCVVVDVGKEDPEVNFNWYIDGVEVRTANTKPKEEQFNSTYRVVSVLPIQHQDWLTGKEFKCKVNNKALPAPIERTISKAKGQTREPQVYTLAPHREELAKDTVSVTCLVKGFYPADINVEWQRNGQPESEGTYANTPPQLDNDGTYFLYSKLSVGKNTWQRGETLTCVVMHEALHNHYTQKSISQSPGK", "experiment": "binding ELISA on coated hNav1.5 loop A3-llama Fc, OD620", "source_text": "(§1) The therapeutic potency of an anti-hNav1.7 antibody will highly depend on the lack of binding to other Nay family members. Of particular interest is hNav1.5, which is expressed on cardiac muscle cells. As such, cross-reactive binding of hNav1.7 antibodies to hNav1.5 could lead to heart failure. To assay the specificity of the mAbs derived from DNA immunization for hNav1.7, the corresponding loopA3 and loopB1-C1-D1 sequences of hNav1.5 were cloned as llamaFc chimera and cross-reactivity was determined using a binding ELISA (FIG. 8). All clones, except clone 9A6 and 9H4, show no cross-reactivity to hNav1.5. In addition, cross reactivity for hNav1.2 was tested for the loopA3-binding clones 8A7 and 8B6 using hNav1.2 and hNav1.7 derived monomeric, GST-tagged loopA3 peptides (Abnova, H00006326-Q01 (hNav1.2) and H00006335-Q01 (hNav1.7)). Again, no cross-reactive binding was observed."}, "[3]": {"target": "T2, mouse A3-llamaFc (mouse, UniProt Q62205 269-319)", "T2 construct": "also called wild-type mouse A3 loop; not shown: linker and llama Fc of the A3-llamaFc construct", "T2 sequence": "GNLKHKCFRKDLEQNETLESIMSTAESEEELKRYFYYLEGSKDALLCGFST", "experiment": "binding ELISA of mAb 8A7 on coated loop A3-llama Fc chimeras, OD450"}, "[4]": {"target": "T3, hNav1.7-loopA3-llama Fc fusion (human)", "T3 construct": "also called hNav1.7-loopA3-llFc; loopA3-llamaFc chimera", "T3 chain": "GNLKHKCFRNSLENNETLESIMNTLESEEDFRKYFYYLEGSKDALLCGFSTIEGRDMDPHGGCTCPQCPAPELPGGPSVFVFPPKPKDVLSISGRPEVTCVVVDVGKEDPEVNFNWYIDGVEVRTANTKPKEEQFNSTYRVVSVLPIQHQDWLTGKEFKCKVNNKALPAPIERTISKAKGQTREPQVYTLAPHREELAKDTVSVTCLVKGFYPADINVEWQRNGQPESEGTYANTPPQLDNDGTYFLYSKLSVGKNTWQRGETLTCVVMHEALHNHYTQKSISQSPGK", "experiment": "binding ELISA of mAb 8A7 on coated loop A3-llama Fc chimeras, OD450"}, "[5]": {"target": "T4, Mouse A3 mut1 (mouse-human chimera, UniProt Q62205 269-319)", "T4 construct": "also called mouse A3 mut1 loop; not shown: linker and llama Fc of the A3-llamaFc construct", "experiment": "binding ELISA of mAb 8A7 on coated loop A3-llama Fc chimeras, OD450"}, "[6]": {"target": "T3, hNav1.7-loopA3-llama Fc fusion", "experiment": "ELISA, coated loopA3-llama Fc 10 ng/well, mAb titrated", "protocol": "In a next experiment, the binding affinity of the loop-specific mAbs was determined and compared to reference mAbs as described in US2011/0135662 (for loop A3: UCB_932, for loopB1-C1-D1: UCB_983, for loopC3: UCB_1066; US2011/0135662). Affinities were determined using an ELISA with a loop-coating of 10 ng/well (loopA3-llama Fc), 20 ng/well (loop-B1-C1-D1-llama Fc) or 50 ng/well (loopC3-llama Fc). The remainder of the experimental setup was identical to abovementioned binding ELISAs. Most of the mAbs show pM affinity for the respective hNav1.7 extracellular loop they are binding. […] The EC₅₀ for the reference mAbs could not be determined (nd) from the ELISA data available because the binding was too weak."}, "[7]": {"target": "T5, GST-tagged hNav1.2-loopA3 (human, UniProt Q99250 273-362)", "T5 construct": "bought (Abnova); monomeric; also called hNav1.2 derived monomeric GST-tagged loopA3 peptide; Abnova H00006326-Q01; not shown: GST tag", "T5 sequence (Q99250 273-362 limits assumed)": "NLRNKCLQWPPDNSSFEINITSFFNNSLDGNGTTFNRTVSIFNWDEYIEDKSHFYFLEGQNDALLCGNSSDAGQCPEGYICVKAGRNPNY", "experiment": "binding ELISA on coated GST-tagged hNav1.2 loop A3 peptide, OD620", "source_text": "as §1"}},
  "data": [
    {"binder": "B1", "values": [
      {"measurement": "% inhibition of inward current following P02 voltage protocol, 10 µg/ml", "setting": "[1]", "value": 4, "unit": "%"},
      {"measurement": "% inhibition of inward current following P02 voltage protocol, 25 µg/ml", "setting": "[1]", "value": 33.3, "unit": "%"},
      {"measurement": "% inhibition of inward current following P02 voltage protocol, 100 µg/ml", "setting": "[1]", "value": 47.6, "unit": "%"},
      {"measurement": "binding result", "setting": "[2]", "value": "no binding (tested: about 66 ng/ml (axis as labelled))"},
      {"measurement": "binding result", "setting": "[3]", "value": "no binding (tested: about 33 nM)"},
      {"measurement": "EC50 (read off the curve)", "setting": "[4]", "value": "~0.08", "unit": "nM"},
      {"measurement": "binding result", "setting": "[5]", "value": "no binding (tested: about 33 nM)"},
      {"measurement": "EC50", "setting": "[6]", "value": 0.23, "unit": "nM"},
      {"measurement": "binding result", "setting": "[7]", "value": "no binding (tested: about 130 nM)"}
    ]}
  ]
}
